Results as given in PMC12232886 (2025).

Assays:
[1] = molecular target: T1, Fyn SH3 (Homo sapiens, UniProt P06241); assay: NMR titration
[2] = molecular target: T1, Fyn SH3; assay: ITC

T1 sequence (P06241 79-146): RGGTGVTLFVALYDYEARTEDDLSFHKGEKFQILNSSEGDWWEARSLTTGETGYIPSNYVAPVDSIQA

Row | Binder | Kd [1] [µM] | Kd [2] [µM]
1 | PSGTGPEDTEGGRHA [Tau 170-184] | 127 | –
2 | ERPGSKEEVDEDRDV [Tau 210-224] | 163 | –

The remaining lines, values ahead:

Row | Kd [1] [µM] | Kd [2] [µM] | Binder
3 | 327 | – | QDGRPPQTAAREATS [Tau 241-255]
4 | – | 11 | Tau 151-243 (protein) SGMPGAPLLPEGPREATRQPSGTGPEDTEGGRHAPELLKHQLLGDLHQEGPPLKGAGGKERPGSKEEVDEDRDVDESSPQDSPPSKASPAQDG
